According to patent US20220402983A1 (Janssen / Centocor, published 2022):
*1 amine or outer side, *2 acyl side, *3 side chain or, on linkers, in order; H or OH if unused. Bridges are numbered along the chain shown (N, C = ends). Where no end group is shown, it is not given here. [ ]: non-standard residue; d: D form. The star is where a group is joined. Phe(4-(2-(Boc)aminoethoxy)) = phenylalanine with 4-(2-(Boc-amino)ethoxy) on the ring, CC(C)(C)OC(=O)NCCOc1ccc(C[C@H](N[*:1])C(=O)[*:2])cc1; Phe(3,5-F2) = N[C@@H](Cc1cc(F)cc(F)c1)C(=O)O; 2Nal = N[C@@H](Cc1ccc2ccccc2c1)C(=O)O; AEF = NCCOc1ccc(C[C@H](N)C(=O)O)cc1; αMeY = C[C@](N)(Cc1ccc(O)cc1)C(=O)O; Cyclopropanecarbonyl = O=C(C1CC1)*; αMeF = C[C@](N)(Cc1ccccc1)C(=O)O; αMeE = C[C@](N)(CCC(=O)O)C(=O)O; Pen = CC(C)(S)[C@H](N)C(=O)O; αMeK = C[C@](N)(CCCCN)C(=O)O; αMeC = C[C@](N)(CS)C(=O)O; Ac6c = NC1(C(=O)O)CCCCC1; Thp = NC1(C(=O)O)CCOCC1; Abu = CC[C@H](N)C(=O)O; Aib = CC(C)(N)C(=O)O; Propionyl = CCC(=O)*; Butyryl = CCCC(=O)*; Propyl = CCC*

T1: human IL-23R (interleukin-23 receptor) (human, UniProt Q5VWK5 24-629)
T1 sequence (looked up): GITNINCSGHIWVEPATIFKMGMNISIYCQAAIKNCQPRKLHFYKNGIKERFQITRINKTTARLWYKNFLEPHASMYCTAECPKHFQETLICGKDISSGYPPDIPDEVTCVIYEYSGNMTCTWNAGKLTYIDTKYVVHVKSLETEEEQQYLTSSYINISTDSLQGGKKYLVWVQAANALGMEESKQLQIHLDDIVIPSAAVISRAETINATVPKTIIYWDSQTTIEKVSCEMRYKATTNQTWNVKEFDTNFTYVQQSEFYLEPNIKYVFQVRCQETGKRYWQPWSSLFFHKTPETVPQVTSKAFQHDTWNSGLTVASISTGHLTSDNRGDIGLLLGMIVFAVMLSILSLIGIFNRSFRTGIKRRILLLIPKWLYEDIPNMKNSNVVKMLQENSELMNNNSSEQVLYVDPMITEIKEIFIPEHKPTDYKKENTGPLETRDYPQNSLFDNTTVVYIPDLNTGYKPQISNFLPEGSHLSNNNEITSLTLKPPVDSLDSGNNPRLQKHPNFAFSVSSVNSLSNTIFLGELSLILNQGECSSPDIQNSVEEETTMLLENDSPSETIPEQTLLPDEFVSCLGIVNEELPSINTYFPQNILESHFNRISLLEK

B1: Compound No. 53 (peptide)
peptide: Ac-[dR][Pen]QTWQ[Pen][AEF][2Nal][Thp]K(Ac)NF-NH2
modifications: disulfide 2-7
SMILES: CC(=O)NCCCC[C@H](NC(=O)C1(NC(=O)[C@H](Cc2ccc3ccccc3c2)NC(=O)[C@H](Cc2ccc(OCCN)cc2)NC(=O)[C@H]2NC(=O)[C@H](CCC(N)=O)NC(=O)[C@H](Cc3c[nH]c4ccccc34)NC(=O)[C@H]([C@@H](C)O)NC(=O)[C@H](CCC(N)=O)NC(=O)[C@@H](NC(=O)[C@@H](CCCNC(=N)N)NC(C)=O)C(C)(C)SSC2(C)C)CCOCC1)C(=O)N[C@@H](CC(N)=O)C(=O)N[C@@H](Cc1ccccc1)C(N)=O
B2: Compound No. 52 (peptide)
peptide: Ac-[dR][Pen]QTWQ[Pen][AEF][2Nal][Thp]K(Butyryl)N[Thp]-NH2
modifications: disulfide 2-7
SMILES: CCCC(=O)NCCCC[C@H](NC(=O)C1(NC(=O)[C@H](Cc2ccc3ccccc3c2)NC(=O)[C@H](Cc2ccc(OCCN)cc2)NC(=O)[C@H]2NC(=O)[C@H](CCC(N)=O)NC(=O)[C@H](Cc3c[nH]c4ccccc34)NC(=O)[C@H]([C@@H](C)O)NC(=O)[C@H](CCC(N)=O)NC(=O)[C@@H](NC(=O)[C@@H](CCCNC(=N)N)NC(C)=O)C(C)(C)SSC2(C)C)CCOCC1)C(=O)N[C@@H](CC(N)=O)C(=O)NC1(C(N)=O)CCOCC1
B3: Compound No. 55 (peptide)
peptide: Ac-[dR][Pen]QTWQ[Pen][AEF][2Nal][Thp]K(Cyclopropanecarbonyl)NF-NH2
modifications: disulfide 2-7
SMILES: CC(=O)N[C@H](CCCNC(=N)N)C(=O)N[C@@H]1C(=O)N[C@@H](CCC(N)=O)C(=O)N[C@@H]([C@@H](C)O)C(=O)N[C@@H](Cc2c[nH]c3ccccc23)C(=O)N[C@@H](CCC(N)=O)C(=O)N[C@H](C(=O)N[C@@H](Cc2ccc(OCCN)cc2)C(=O)N[C@@H](Cc2ccc3ccccc3c2)C(=O)NC2(C(=O)N[C@@H](CCCCNC(=O)C3CC3)C(=O)N[C@@H](CC(N)=O)C(=O)N[C@@H](Cc3ccccc3)C(N)=O)CCOCC2)C(C)(C)SSC1(C)C
B4: Compound No. 54 (peptide)
peptide: Ac-[dR][Pen]QTWQ[Pen][AEF][2Nal][Thp]K(Propionyl)NF-NH2
modifications: disulfide 2-7
SMILES: CCC(=O)NCCCC[C@H](NC(=O)C1(NC(=O)[C@H](Cc2ccc3ccccc3c2)NC(=O)[C@H](Cc2ccc(OCCN)cc2)NC(=O)[C@H]2NC(=O)[C@H](CCC(N)=O)NC(=O)[C@H](Cc3c[nH]c4ccccc34)NC(=O)[C@H]([C@@H](C)O)NC(=O)[C@H](CCC(N)=O)NC(=O)[C@@H](NC(=O)[C@@H](CCCNC(=N)N)NC(C)=O)C(C)(C)SSC2(C)C)CCOCC1)C(=O)N[C@@H](CC(N)=O)C(=O)N[C@@H](Cc1ccccc1)C(N)=O
B5: Compound No. 40 (peptide)
peptide: Ac-[dR]CQTWQ[Pen][AEF][2Nal][Ac6c][αMeE]N[αMeF]-NH2
modifications: disulfide 2-7
SMILES: CC(=O)N[C@H](CCCNC(=N)N)C(=O)N[C@H]1CSSC(C)(C)[C@@H](C(=O)N[C@@H](Cc2ccc(OCCN)cc2)C(=O)N[C@@H](Cc2ccc3ccccc3c2)C(=O)NC2(C(=O)N[C@@](C)(CCC(=O)O)C(=O)N[C@@H](CC(N)=O)C(=O)N[C@@](C)(Cc3ccccc3)C(N)=O)CCCCC2)NC(=O)[C@H](CCC(N)=O)NC(=O)[C@H](Cc2c[nH]c3ccccc23)NC(=O)[C@H]([C@@H](C)O)NC(=O)[C@H](CCC(N)=O)NC1=O
B6: Compound No. 56 (peptide)
peptide: Ac-[dR][Pen]QTWQ[Pen][AEF][2Nal][Thp]K(Ac)N[Thp]-NH2
modifications: disulfide 2-7
SMILES: CC(=O)NCCCC[C@H](NC(=O)C1(NC(=O)[C@H](Cc2ccc3ccccc3c2)NC(=O)[C@H](Cc2ccc(OCCN)cc2)NC(=O)[C@H]2NC(=O)[C@H](CCC(N)=O)NC(=O)[C@H](Cc3c[nH]c4ccccc34)NC(=O)[C@H]([C@@H](C)O)NC(=O)[C@H](CCC(N)=O)NC(=O)[C@@H](NC(=O)[C@@H](CCCNC(=N)N)NC(C)=O)C(C)(C)SSC2(C)C)CCOCC1)C(=O)N[C@@H](CC(N)=O)C(=O)NC1(C(N)=O)CCOCC1
B7: Compound No. 51 (peptide)
peptide: Ac-[dR][Pen]QTWQ[Pen][AEF][2Nal][Thp]K(Cyclopropanecarbonyl)N[Thp]-NH2
modifications: disulfide 2-7
SMILES: CC(=O)N[C@H](CCCNC(=N)N)C(=O)N[C@@H]1C(=O)N[C@@H](CCC(N)=O)C(=O)N[C@@H]([C@@H](C)O)C(=O)N[C@@H](Cc2c[nH]c3ccccc23)C(=O)N[C@@H](CCC(N)=O)C(=O)N[C@H](C(=O)N[C@@H](Cc2ccc(OCCN)cc2)C(=O)N[C@@H](Cc2ccc3ccccc3c2)C(=O)NC2(C(=O)N[C@@H](CCCCNC(=O)C3CC3)C(=O)N[C@@H](CC(N)=O)C(=O)NC3(C(N)=O)CCOCC3)CCOCC2)C(C)(C)SSC1(C)C

Molecular target: T1, human IL-23R (interleukin-23 receptor)
Test: cell-based or functional assay

PBMC pSTAT3 IC50 (nM) | Binder
9.3 | Ac-[dR][Abu]QTWQC[AEF][2Nal][Thp][αMeE]N[αMeY]-NH2 (thioether 2-7) [Compound No. 44]
29 | B1
16 | B2
25 | B3
7.2 | Propyl-[dR][Abu]QTWQ[αMeC][AEF][2Nal][Thp]ENF-NH2 (thioether 2-7) [Compound No. 48]
48 | Ac-[dR][Abu]QTWQC[AEF][2Nal][Thp][αMeE]N[Phe(3,5-F2)]-NH2 (thioether 2-7) [Compound No. 46]
5.3 | [dR][Abu]QTWQC[Phe(4-(2-(Boc)aminoethoxy))][2Nal][Thp]EN[Thp]-NH2 (thioether 2-7) [Compound No. 47]
6.7 | Ac-[dR][Abu]QTWQC[AEF][2Nal][Ac6c]EN[Thp]-NH2 (thioether 2-7) [Compound No. 42]
14 | Ac-[dR][Abu]QTWQC[AEF][2Nal][Thp][Ac6c]N[αMeF]-NH2 (thioether 2-7) [Compound No. 50]
47 | B4
2500 | Ac-[dR][Abu]QTWQC[Phe(3,4-diOMe)][2Nal][Thp][αMeE]N[αMeF]-NH2 (thioether 2-7) [Compound No. 41]
8.2 | Ac-[dR][Abu]QTWQC[AEF][2Nal][Thp][αMeE]NF[Aib][αMeK]-NH2 (thioether 2-7) [Compound No. 43]
220 | B5
4.9 | B6
17 | Ac-[dR][Abu]QTWQC[AEF][2Nal][Ac6c][αMeE]NF[Aib][αMeK]-NH2 (thioether 2-7) [Compound No. 45]
27 | B7
18 | Ac-[dR][Abu]QTWQC[AEF][2Nal][Thp][Aib]NF-NH2 (thioether 2-7) [Compound No. 49]
